{"source": "patent US20060051772A1", "about": "(LUDWIG INSTITUTE FOR CANCER RESEARCH, published 2006)", "biological_target": "HLA-DR molecule DRB1*0301 (human)", "assay": "cell-based or functional assay"}
{"binder": "WEKMKSSEKIVYVYM", "note": "[peptide SSX-4 37-51]", "values": [{"measurement": "peptide titration assay: recognition by SSX-4 31-50 reactive CD4+ T cells from LAU 331, efficiency against peptide SSX-4 31-50", "result": 3, "unit": "fold"}]}
